Source: patent US20240270846A1 (published 2024)

biological target: T1, CD3 epsilon homodimer protein (UniProt P07766 23-126); experiment: SPR (Biacore T200), CD3e homodimer on CM4 chip, antibody as analyte; KD ratio vs unaltered GLS3000;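 note: CD3 epsilon homodimer amine-coupled to the sensor surface, antibodies injected as analyte at 25 °C with HBS-EP+ running buffer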
T1 construct: also called CD3 (CD3 epsilon)
T1 sequence (P07766 23-126): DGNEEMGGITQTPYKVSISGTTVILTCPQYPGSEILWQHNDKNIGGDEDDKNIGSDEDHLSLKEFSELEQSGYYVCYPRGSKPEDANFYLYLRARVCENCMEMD

Binder | KD ratio to GLS3000
CE115HA000/GLS3000 G91E one-arm antibody (antibody, human IgG1, kappa, L234A L235A, N297A, name in Kabat numbering, one-arm IgG1) heavy: QVQLVESGGGVVQPGRSLRLSCAASGFTFSNAWMHWVRQAPGKGLEWVAQIKAKSNNYATYYAESVKGRFTISRDDSKNSLYLQMNSLKTEDTAVYYCRYVHYGAYYGVDAWGQGTTVTVSSASTKGPSVFPLAPSSKSTSGGTAALGCLVKDYFPEPVTVSWNSGALTSGVHTFPAVLQSSGLYSLSSVVTVPSSSLGTQTYICNVNHKPSNTKVDKKVEPKSCDKTHTCPPCPAPEAAGGPSVFLFPPKPKDTLMISRTPEVTCVVVDVSHEDPEVKFNWYVDGVEVHNAKTKPREEQYASTYRVVSVLTVLHQDWLNGKEYKCKVSNKALPAPIEKTISKAKGQPREPQVYTLPPSRCELTKNQVSLSCAVKGFYPSDIAVEWESNGQPENNYKTTPPVLDSDGSFFLVSKLTVDKSRWQQGNVFSCSVMHEALHNHYTQKSLSLSPDYKDDDDK EPKSSDKTHTCPPCPAPELLGGPSVFLFPPKPKDTLMISRTPEVTCVVVDVSHEDPEVKFNWYVDGVEVHNAKTKPREEQYNSTYRVVSVLTVLHQDWLNGKEYKCKVSNKALPAPIEKTISKAKGQPREPQVCTLPPSRDELTKNQVSLWCLVKGFYPSDIAVEWESNGQPENNYKTTPPVLDSDGSFFLYSKLTVDKSRWQQGNVFSCSVMHEALHNRYTQKSLSLSP light: DIVMTQSPLSLPVTPGEPASISCRSSQSLVHSNRNTYLHWYQQKPGQAPRLLIYKVSNRFSGVPDRFSGSGSGTDFTLKISRVEAEDVGVYYCGQETQVPYTFGQGTKLEIKRTVAAPSVFIFPPSDEQLKSGTASVVCLLNNFYPREAKVQWKVDNALQSGNSQESVTEQDSKDSTYSLSSTLTLSKADYEKHKVYACEVTHQGLSSPVTKSFNRGEC | 48.5 ratio
CE115HA000/GLS3000 H34D one-arm antibody (antibody, human IgG1, kappa, L234A L235A, N297A, name in Kabat numbering, one-arm IgG1) heavy: QVQLVESGGGVVQPGRSLRLSCAASGFTFSNAWMHWVRQAPGKGLEWVAQIKAKSNNYATYYAESVKGRFTISRDDSKNSLYLQMNSLKTEDTAVYYCRYVHYGAYYGVDAWGQGTTVTVSSASTKGPSVFPLAPSSKSTSGGTAALGCLVKDYFPEPVTVSWNSGALTSGVHTFPAVLQSSGLYSLSSVVTVPSSSLGTQTYICNVNHKPSNTKVDKKVEPKSCDKTHTCPPCPAPEAAGGPSVFLFPPKPKDTLMISRTPEVTCVVVDVSHEDPEVKFNWYVDGVEVHNAKTKPREEQYASTYRVVSVLTVLHQDWLNGKEYKCKVSNKALPAPIEKTISKAKGQPREPQVYTLPPSRCELTKNQVSLSCAVKGFYPSDIAVEWESNGQPENNYKTTPPVLDSDGSFFLVSKLTVDKSRWQQGNVFSCSVMHEALHNHYTQKSLSLSPDYKDDDDK EPKSSDKTHTCPPCPAPELLGGPSVFLFPPKPKDTLMISRTPEVTCVVVDVSHEDPEVKFNWYVDGVEVHNAKTKPREEQYNSTYRVVSVLTVLHQDWLNGKEYKCKVSNKALPAPIEKTISKAKGQPREPQVCTLPPSRDELTKNQVSLWCLVKGFYPSDIAVEWESNGQPENNYKTTPPVLDSDGSFFLYSKLTVDKSRWQQGNVFSCSVMHEALHNRYTQKSLSLSP light: DIVMTQSPLSLPVTPGEPASISCRSSQSLVHSNRNTYLDWYQQKPGQAPRLLIYKVSNRFSGVPDRFSGSGSGTDFTLKISRVEAEDVGVYYCGQGTQVPYTFGQGTKLEIKRTVAAPSVFIFPPSDEQLKSGTASVVCLLNNFYPREAKVQWKVDNALQSGNSQESVTEQDSKDSTYSLSSTLTLSKADYEKHKVYACEVTHQGLSSPVTKSFNRGEC | 2100 ratio
CE115HA000/GLS3000 H34E one-arm antibody (antibody, human IgG1, kappa, L234A L235A, N297A, name in Kabat numbering, one-arm IgG1) heavy: QVQLVESGGGVVQPGRSLRLSCAASGFTFSNAWMHWVRQAPGKGLEWVAQIKAKSNNYATYYAESVKGRFTISRDDSKNSLYLQMNSLKTEDTAVYYCRYVHYGAYYGVDAWGQGTTVTVSSASTKGPSVFPLAPSSKSTSGGTAALGCLVKDYFPEPVTVSWNSGALTSGVHTFPAVLQSSGLYSLSSVVTVPSSSLGTQTYICNVNHKPSNTKVDKKVEPKSCDKTHTCPPCPAPEAAGGPSVFLFPPKPKDTLMISRTPEVTCVVVDVSHEDPEVKFNWYVDGVEVHNAKTKPREEQYASTYRVVSVLTVLHQDWLNGKEYKCKVSNKALPAPIEKTISKAKGQPREPQVYTLPPSRCELTKNQVSLSCAVKGFYPSDIAVEWESNGQPENNYKTTPPVLDSDGSFFLVSKLTVDKSRWQQGNVFSCSVMHEALHNHYTQKSLSLSPDYKDDDDK EPKSSDKTHTCPPCPAPELLGGPSVFLFPPKPKDTLMISRTPEVTCVVVDVSHEDPEVKFNWYVDGVEVHNAKTKPREEQYNSTYRVVSVLTVLHQDWLNGKEYKCKVSNKALPAPIEKTISKAKGQPREPQVCTLPPSRDELTKNQVSLWCLVKGFYPSDIAVEWESNGQPENNYKTTPPVLDSDGSFFLYSKLTVDKSRWQQGNVFSCSVMHEALHNRYTQKSLSLSP light: DIVMTQSPLSLPVTPGEPASISCRSSQSLVHSNRNTYLEWYQQKPGQAPRLLIYKVSNRFSGVPDRFSGSGSGTDFTLKISRVEAEDVGVYYCGQGTQVPYTFGQGTKLEIKRTVAAPSVFIFPPSDEQLKSGTASVVCLLNNFYPREAKVQWKVDNALQSGNSQESVTEQDSKDSTYSLSSTLTLSKADYEKHKVYACEVTHQGLSSPVTKSFNRGEC | 8.03 ratio
CE115HA000/GLS3000 H34F one-arm antibody (antibody, human IgG1, kappa, L234A L235A, N297A, name in Kabat numbering, one-arm IgG1) heavy: QVQLVESGGGVVQPGRSLRLSCAASGFTFSNAWMHWVRQAPGKGLEWVAQIKAKSNNYATYYAESVKGRFTISRDDSKNSLYLQMNSLKTEDTAVYYCRYVHYGAYYGVDAWGQGTTVTVSSASTKGPSVFPLAPSSKSTSGGTAALGCLVKDYFPEPVTVSWNSGALTSGVHTFPAVLQSSGLYSLSSVVTVPSSSLGTQTYICNVNHKPSNTKVDKKVEPKSCDKTHTCPPCPAPEAAGGPSVFLFPPKPKDTLMISRTPEVTCVVVDVSHEDPEVKFNWYVDGVEVHNAKTKPREEQYASTYRVVSVLTVLHQDWLNGKEYKCKVSNKALPAPIEKTISKAKGQPREPQVYTLPPSRCELTKNQVSLSCAVKGFYPSDIAVEWESNGQPENNYKTTPPVLDSDGSFFLVSKLTVDKSRWQQGNVFSCSVMHEALHNHYTQKSLSLSPDYKDDDDK EPKSSDKTHTCPPCPAPELLGGPSVFLFPPKPKDTLMISRTPEVTCVVVDVSHEDPEVKFNWYVDGVEVHNAKTKPREEQYNSTYRVVSVLTVLHQDWLNGKEYKCKVSNKALPAPIEKTISKAKGQPREPQVCTLPPSRDELTKNQVSLWCLVKGFYPSDIAVEWESNGQPENNYKTTPPVLDSDGSFFLYSKLTVDKSRWQQGNVFSCSVMHEALHNRYTQKSLSLSP light: DIVMTQSPLSLPVTPGEPASISCRSSQSLVHSNRNTYLFWYQQKPGQAPRLLIYKVSNRFSGVPDRFSGSGSGTDFTLKISRVEAEDVGVYYCGQGTQVPYTFGQGTKLEIKRTVAAPSVFIFPPSDEQLKSGTASVVCLLNNFYPREAKVQWKVDNALQSGNSQESVTEQDSKDSTYSLSSTLTLSKADYEKHKVYACEVTHQGLSSPVTKSFNRGEC | 3.5 ratio
CE115HA000/GLS3000 H34G one-arm antibody (antibody, human IgG1, kappa, L234A L235A, N297A, name in Kabat numbering, one-arm IgG1) heavy: QVQLVESGGGVVQPGRSLRLSCAASGFTFSNAWMHWVRQAPGKGLEWVAQIKAKSNNYATYYAESVKGRFTISRDDSKNSLYLQMNSLKTEDTAVYYCRYVHYGAYYGVDAWGQGTTVTVSSASTKGPSVFPLAPSSKSTSGGTAALGCLVKDYFPEPVTVSWNSGALTSGVHTFPAVLQSSGLYSLSSVVTVPSSSLGTQTYICNVNHKPSNTKVDKKVEPKSCDKTHTCPPCPAPEAAGGPSVFLFPPKPKDTLMISRTPEVTCVVVDVSHEDPEVKFNWYVDGVEVHNAKTKPREEQYASTYRVVSVLTVLHQDWLNGKEYKCKVSNKALPAPIEKTISKAKGQPREPQVYTLPPSRCELTKNQVSLSCAVKGFYPSDIAVEWESNGQPENNYKTTPPVLDSDGSFFLVSKLTVDKSRWQQGNVFSCSVMHEALHNHYTQKSLSLSPDYKDDDDK EPKSSDKTHTCPPCPAPELLGGPSVFLFPPKPKDTLMISRTPEVTCVVVDVSHEDPEVKFNWYVDGVEVHNAKTKPREEQYNSTYRVVSVLTVLHQDWLNGKEYKCKVSNKALPAPIEKTISKAKGQPREPQVCTLPPSRDELTKNQVSLWCLVKGFYPSDIAVEWESNGQPENNYKTTPPVLDSDGSFFLYSKLTVDKSRWQQGNVFSCSVMHEALHNRYTQKSLSLSP light: DIVMTQSPLSLPVTPGEPASISCRSSQSLVHSNRNTYLGWYQQKPGQAPRLLIYKVSNRFSGVPDRFSGSGSGTDFTLKISRVEAEDVGVYYCGQGTQVPYTFGQGTKLEIKRTVAAPSVFIFPPSDEQLKSGTASVVCLLNNFYPREAKVQWKVDNALQSGNSQESVTEQDSKDSTYSLSSTLTLSKADYEKHKVYACEVTHQGLSSPVTKSFNRGEC | 1.08 ratio
CE115HA000/GLS3000 H34I one-arm antibody (antibody, human IgG1, kappa, L234A L235A, N297A, name in Kabat numbering, one-arm IgG1) heavy: QVQLVESGGGVVQPGRSLRLSCAASGFTFSNAWMHWVRQAPGKGLEWVAQIKAKSNNYATYYAESVKGRFTISRDDSKNSLYLQMNSLKTEDTAVYYCRYVHYGAYYGVDAWGQGTTVTVSSASTKGPSVFPLAPSSKSTSGGTAALGCLVKDYFPEPVTVSWNSGALTSGVHTFPAVLQSSGLYSLSSVVTVPSSSLGTQTYICNVNHKPSNTKVDKKVEPKSCDKTHTCPPCPAPEAAGGPSVFLFPPKPKDTLMISRTPEVTCVVVDVSHEDPEVKFNWYVDGVEVHNAKTKPREEQYASTYRVVSVLTVLHQDWLNGKEYKCKVSNKALPAPIEKTISKAKGQPREPQVYTLPPSRCELTKNQVSLSCAVKGFYPSDIAVEWESNGQPENNYKTTPPVLDSDGSFFLVSKLTVDKSRWQQGNVFSCSVMHEALHNHYTQKSLSLSPDYKDDDDK EPKSSDKTHTCPPCPAPELLGGPSVFLFPPKPKDTLMISRTPEVTCVVVDVSHEDPEVKFNWYVDGVEVHNAKTKPREEQYNSTYRVVSVLTVLHQDWLNGKEYKCKVSNKALPAPIEKTISKAKGQPREPQVCTLPPSRDELTKNQVSLWCLVKGFYPSDIAVEWESNGQPENNYKTTPPVLDSDGSFFLYSKLTVDKSRWQQGNVFSCSVMHEALHNRYTQKSLSLSP light: DIVMTQSPLSLPVTPGEPASISCRSSQSLVHSNRNTYLIWYQQKPGQAPRLLIYKVSNRFSGVPDRFSGSGSGTDFTLKISRVEAEDVGVYYCGQGTQVPYTFGQGTKLEIKRTVAAPSVFIFPPSDEQLKSGTASVVCLLNNFYPREAKVQWKVDNALQSGNSQESVTEQDSKDSTYSLSSTLTLSKADYEKHKVYACEVTHQGLSSPVTKSFNRGEC | 0.89 ratio
